According to PMC4121141, “Structural Basis for TatA Oligomerization: An NMR Study of Escherichia coli TatA Dimeric Structure” (PLoS ONE, 2014):
Where no end group is shown, it is not given here. The star is where a group is joined. MTSL = 1-oxy-2,2,5,5-tetramethyl-D-pyrroline-3-methyl methanethiosulfonate spin label, CC1(C)C=C(CS*)C(C)(C)N1[O]

B1: Escherichia coli TatA, wild type, full length (natural protein, UniProt P69428 1-89, looked up)
chain: MGGISIWQLLIIAVIVVLLFGTKKLGSIGSDLGASIKGFKKAMSDDEPKQDKTSQDADFTAKTIADKQADTNQEQAKTEDAKRHDKEQV
notes: TatA, Escherichia coli, 89 amino acids, one transmembrane helix (Ile6-Phe20) and one amphipathic helix (Lys24-Met43); 15N- or 13C/15N-labelled for NMR; also called wt-TatA; wild-type TatA; source: in C12E9 with Superdex 200 gel filtration for blue-native PAGE
B2: MCG-TatA (wild-type E. coli TatA extended at the N-terminus by Met-Cys-Gly) (natural protein, Escherichia coli)
chain: MCGMGGISIWQLLIIAVIVVLLFGTKKLGSIGSDLGASIKGFKKAMSDDEPKQDKTSQDADFTAKTIADKQADTNQEQAKTEDAKRHDKEQV
notes: three additional amino acids Met-Cys-Gly at the N-terminus, numbered M(-3)C(-2)G(-1); TatA, Escherichia coli, wild type, 89 amino acids, Met1 kept after the extension; The single chain of the disulphide-linked dimer d-MCG-TatA; It is used here for the subunit-to-subunit rows of the dimer structure and of the cross-link; source: in C12E9 with Superdex 200 gel filtration for blue-native PAGE; …
B3: TatA_(1–55), truncated E. coli TatA (residues Met1-Gln55) (domain or fragment, Escherichia coli, UniProt P69428 1-55, looked up)
chain: MGGISIWQLLIIAVIVVLLFGTKKLGSIGSDLGASIKGFKKAMSDDEPKQDKTSQ
notes: TatA, Escherichia coli, residues Met1-Gln55; the unstructured C-terminal region removed; 15N-labelled in the relaxation and PRE experiments; source: purified in DPC
B4: TatA_(1–55)-I12C-MTSL (domain or fragment, Escherichia coli, UniProt P69428 1-55, looked up)
chain: MGGISIWQLLIC(MTSL)AVIVVLLFGTKKLGSIGSDLGASIKGFKKAMSDDEPKQDKTSQ
notes: TatA, Escherichia coli, residues Met1-Gln55 with Ile12 mutated to cysteine; source: purified in DPC, unlabeled, tagged with MTSL
B5: TatA_(1–55)-I11C-MTSL (domain or fragment, Escherichia coli, UniProt P69428 1-55, looked up)
chain: MGGISIWQLLC(MTSL)IAVIVVLLFGTKKLGSIGSDLGASIKGFKKAMSDDEPKQDKTSQ
notes: TatA, Escherichia coli, residues Met1-Gln55 with Ile11 mutated to cysteine; source: purified in DPC, unlabeled, tagged with MTSL

Columns and labels:
[1] = target: the molecule itself; experiment: NMR 1H-15N HSQC at decreasing detergent-to-protein ratio; full-length TatA in DPC micelles, 50 mM sodium phosphate pH 7.0, 35°C; DPR lowered from >200; new sets of cross peaks appear
[2] = target: the molecule itself; experiment: solution NMR structure (intermolecular NOEs); disulphide-linked d-MCG-TatA of mixed unlabeled and 13C/15N-labeled MCG-TatA (2:1) in dDPC micelles, DPR about 80, 35°C; 13C/15N-filtered NOESY; 139 inter-subunit NOE restraints; Xplor-NIH
[3] = target: the molecule itself; experiment: NMR backbone 15N relaxation (R2/R1); TatA_(1–55) in DPC micelles, DPR ~70, two sets of peaks in the HSQC, 800 MHz, 35°C; monomer to dimer
[4] = target: B3; experiment: NMR intermolecular paramagnetic relaxation enhancement (PRE); unlabeled MTSL-tagged TatA_(1–55) cysteine mutant mixed at equal molar ratio with 15N-labeled TatA_(1–55) in DPC, 50 mM sodium phosphate pH 7.0, final DPR 40; reference spectrum after reduction with ascorbic acid; conditions: both partners purified

Binder: B1
binding result [1]: binds

Binder: B2
binding result [2]: binds

Binder: B3
stoichiometry N [3]: 2

Binder: B4
stoichiometry N [4]: 2

Binder: B5
binding result [4]: binds
